Source: patent publication US20190142971A1, “FORMULATION AND DELIVERY OF MODIFIED NUCLEOSIDE, NUCLEOTIDE, AND NUCLEIC ACID COMPOSITIONS” (ModernaTX, Inc., priority 2013, published 2019)

Tests used:
Assay type in all cases: in vivo
[1] = test system: non-human primates (cynomolgus monkey); assay: Example 21: LNP IV in non-human primates, serum EPO/G-CSF ELISA (Table 37); settings: for protein expression detectable out to: NHP IV
Description: (§1) Formulations, listed in Table 33, were characterized by particle size, zeta potential, and encapsulation.
LNP formulations, shown in Table 33 (above), were administered to non-human primates (NHP) (cynomolgus monkey) (n=2) as a bolus intravenous injection (IV) over approximately 30 seconds using a hypodermic needle, which may be attached to a syringe/abbocath or butterfly if needed. The NHP were administered a single modified mRNA IV dose of 0.05 mg/kg of EPO or G-CSF or 0.005 mg/kg of EPO in a dose volume of 0.5 mL/kg. The NHPs were bled 5-6 days before dosing with the modified mRNA LNP formulations to determine protein expression in the serum and a baseline complete blood count. After administration with the modified mRNA formulation the NHP were bled at 8, 24, 48 and 72 hours to determined protein expression. At 24 and 72 hours after administration the complete blood count of the NHP was also determined. Protein expression of G-CSF and EPO was determined by ELISA. Urine from the NHPs was collected over the course of the entire experiment and analyzed to evaluate clinical safety. Samples were collected from the NHPs after they were administered with G-CSF or EPO modified mRNA formulations to determine protein expression using ELISA. Clinical chemistry, hematology, urinalysis and cytokines of the non-human primates were also analyzed.

[2] = test system: non-human primates (cynomolgus monkey); assay: Example 22: NHP cytokine interferon-alpha (Table 47)
Description: LNP formulations, shown in Table 33 (above), were administered to non-human primates (NHP) (cynomolgus monkey) (n=2) as intravenous injection (IV). The NHP were administered a single modified mRNA IV dose of 0.5 mg/kg, 0.05 mg/kg or 0.005 mg/kg of G-CSF or EPO in a dose volume of 0.5 mL/kg. The NHPs were bled before dosing with the modified mRNA LNP formulations to determine protein expression in the serum and a baseline complete blood count. After administration with the G-CSF modified mRNA formulation the NHP were bled at 8, 24, 48 and 72 hours to determined protein expression. After administration with the EPO modified mRNA formulation the NHP were bled at 8, 24, 48, 72 hours and 7 days to determined protein expression.

mice = assay: Example 19A: LNP IV in mice, serum EPO/G-CSF ELISA (Table 36)
Description: as §1
LNP formulations, shown in Table 33 (above), were administered to mice (n=4) intravenously (IV) at a single modified mRNA dose 0.05 mg/kg or 0.005 mg/kg. There was also 3 control groups of mice (n=4) that were untreated. The mice were bled at 2 hours, 8 hours, 24 hours, 48 hours and 72 hours after they were administered with G-CSF or EPO modified mRNA formulations to determine the protein expression. Protein expression of G-CSF and EPO were determined using ELISA.

B1: EPO: modified mRNA encoding human erythropoietin, SEQ ID NO: 7, Cap1, fully modified with 5-methylcytosine and pseudouridine; LNP NPA-060-1 in Examples 17-22 (nucleic acid)
chain: GGGAAAUAAGAGAGAAAAGAAGAGUAAGAAGAAAUAUAAGAGCCACCAUGGGAGUGCACGAGUGUCCCGCGUGGUUGUGGUUGCUGCUGUCGCUCUUGAGCCUCCCACUGGGACUGCCUGUGCUGGGGGCACCACCCAGAUUGAUCUGCGACUCACGGGUACUUGAGAGGUACCUUCUUGAAGCCAAAGAAGCCGAAAACAUCACAACCGGAUGCGCCGAGCACUGCUCCCUCAAUGAGAACAUUACUGUACCGGAUACAAAGGUCAAUUUCUAUGCAUGGAAGAGAAUGGAAGUAGGACAGCAGGCCGUCGAAGUGUGGCAGGGGCUCGCGCUUUUGUCGGAGGCGGUGUUGCGGGGUCAGGCCCUCCUCGUCAACUCAUCACAGCCGUGGGAGCCCCUCCAACUUCAUGUCGAUAAAGCGGUGUCGGGGCUCCGCAGCUUGACGACGUUGCUUCGGGCUCUGGGCGCACAAAAGGAGGCUAUUUCGCCGCCUGACGCGGCCUCCGCGGCACCCCUCCGAACGAUCACCGCGGACACGUUUAGGAAGCUUUUUAGAGUGUACAGCAAUUUCCUCCGCGGAAAGCUGAAAUUGUAUACUGGUGAAGCGUGUAGGACAGGGGAUCGCUGAUAAGCUGCCUUCUGCGGGGCUUGCCUUCUGGCCAUGCCCUUCUUCUCUCCCUUGCACCUGUACCUCUUGGUCUUUGAAUAAAGCCUGAGUAGGAAG
modifications: Cap1, 5-methylcytosine, pseudouridine
[1]; 0.005 mg/kg IV, 72 hours
  Average Serum Concentration: 0 pg/mL
  Female NHP Serum Concentration: 0 pg/mL
  Male NHP Serum Concentration: 0 pg/mL
[1]; 0.005 mg/kg IV, Pre-bleed
  Average Serum Concentration: 0 pg/mL
  Female NHP Serum Concentration: 0 pg/mL
  Male NHP Serum Concentration: 0 pg/mL
[1]; 0.05 mg/kg IV, 8 hours
  Average Serum Concentration: 13,465 pg/ml
  Female NHP Serum Concentration: 19,858 pg/ml
  Male NHP Serum Concentration: 7,072 pg/ml
[1]; 0.05 mg/kg IV, 24 hours
  Average Serum Concentration: 11,546 pg/ml
  Female NHP Serum Concentration: 18,178 pg/ml
  Male NHP Serum Concentration: 4,913 pg/ml
[1]; 0.05 mg/kg IV, 48 hours
  Average Serum Concentration: 2,895 pg/ml
  Female NHP Serum Concentration: 5,291 pg/ml
  Male NHP Serum Concentration: 498 pg/mL
[1]; 0.05 mg/kg IV, 72 hours
  Average Serum Concentration: 402 pg/mL
  Female NHP Serum Concentration: 744 pg/mL
  Male NHP Serum Concentration: 60 pg/mL
[1]; 0.05 mg/kg IV, Pre-bleed
  Average Serum Concentration: 0 pg/mL
  Female NHP Serum Concentration: 0 pg/mL
  Male NHP Serum Concentration: 0 pg/mL
[1]; 0.005 mg/kg
  protein expression detectable out to: 48 h
[1]; 0.05 mg/kg
  protein expression detectable out to: 72 h
[2]; 0.005 mg/kg, 4 days, Female NHP
  IFN-alpha: 0 pg/mL
[2]; 0.005 mg/kg, 4 days, Male NHP
  IFN-alpha: 0 pg/mL
[2]; 0.005 mg/kg, Day 1 + 8 hr, Female NHP
  IFN-alpha: 0 pg/mL
[2]; 0.005 mg/kg, Day 1 + 8 hr, Male NHP
  IFN-alpha: 0 pg/mL
[2]; 0.005 mg/kg, Pre-dose, Female NHP
  IFN-alpha: 0 pg/mL
[2]; 0.005 mg/kg, Pre-dose, Male NHP
  IFN-alpha: 0 pg/mL
[2]; 0.05 mg/kg, 4 days, Female NHP
  IFN-alpha: 0 pg/mL
[2]; 0.05 mg/kg, 4 days, Male NHP
  IFN-alpha: 0 pg/mL
[2]; 0.05 mg/kg, Day 1 + 8 hr, Female NHP
  IFN-alpha: 0 pg/mL
[2]; 0.05 mg/kg, Day 1 + 8 hr, Male NHP
  IFN-alpha: 0 pg/mL
[2]; 0.05 mg/kg, Pre-dose, Female NHP
  IFN-alpha: 0 pg/mL
[2]; 0.05 mg/kg, Pre-dose, Male NHP
  IFN-alpha: 0 pg/mL
[2]; 0.5 mg/kg, 4 days, Female NHP
  IFN-alpha: 0 pg/mL
[2]; 0.5 mg/kg, 4 days, Male NHP
  IFN-alpha: 0 pg/mL
[2]; 0.5 mg/kg, Day 1 + 8 hr, Female NHP
  IFN-alpha: 217.5 pg/mL
[2]; 0.5 mg/kg, Day 1 + 8 hr, Male NHP
  IFN-alpha: 16.79 pg/mL
[2]; 0.5 mg/kg, Pre-dose, Female NHP
  IFN-alpha: 0 pg/mL
[2]; 0.5 mg/kg, Pre-dose, Male NHP
  IFN-alpha: 0 pg/mL
mice; 0.005 mg/kg, 2 hours
  EPO / G-CSF Serum Concentration: OSC
mice; 0.005 mg/kg, 8 hours
  EPO / G-CSF Serum Concentration: 1,632.8 pg/ml
mice; 0.005 mg/kg, 24 hours
  EPO / G-CSF Serum Concentration: 1,141.0 pg/ml
mice; 0.005 mg/kg, 48 hours
  EPO / G-CSF Serum Concentration: 137.4 pg/mL
mice; 0.005 mg/kg, 72 hours
  EPO / G-CSF Serum Concentration: 0 pg/mL
mice; 0.05 mg/kg, 2 hours
  EPO / G-CSF Serum Concentration: 10,027.3 pg/ml
mice; 0.05 mg/kg, 8 hours
  EPO / G-CSF Serum Concentration: 56,547.2 pg/ml
mice; 0.05 mg/kg, 24 hours
  EPO / G-CSF Serum Concentration: 25,027.3 pg/ml
mice; 0.05 mg/kg, 48 hours
  EPO / G-CSF Serum Concentration: 1,432.3 pg/ml
mice; 0.05 mg/kg, 72 hours
  EPO / G-CSF Serum Concentration: 82.2 pg/mL
